Laboratory results taken from article PMC6186450.

Biological target: Human Plasma Fibronectin (human)
Experiment: ITC

40 kDa PEG-FUD (peptide)
Kd: 14.7 nM
dH: -32.5 kcal/mol

Functional Upstream Domain (FUD) peptide
Kd: 6 nM

20 kDa PEG-FUD (peptide)
Kd: 10 nM
stoichiometry N: 1.63

10 kDa PEG-FUD (peptide)
Kd: 4.6 nM
